We go through one molecule from article PMC4304707, “Regulation of Oncogene Expression in T-DNA-Transformed Host Plant Cells”.

The data set addresses T1, 6xHis-WRKY40 (Arabidopsis thaliana, UniProt Q9SAH7 1-302).
T1 sequence: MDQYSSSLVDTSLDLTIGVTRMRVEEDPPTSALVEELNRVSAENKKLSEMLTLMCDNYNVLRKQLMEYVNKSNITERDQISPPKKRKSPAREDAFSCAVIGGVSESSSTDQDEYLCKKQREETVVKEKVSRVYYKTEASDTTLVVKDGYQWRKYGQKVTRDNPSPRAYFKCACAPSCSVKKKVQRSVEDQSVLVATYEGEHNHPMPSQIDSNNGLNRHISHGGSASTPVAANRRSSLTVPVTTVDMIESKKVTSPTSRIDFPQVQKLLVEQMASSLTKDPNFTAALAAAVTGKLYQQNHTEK
The data set can be described thus: EMSA; 150 ng weak band, 300 ng much stronger band; about 5 ng probe; unlabeled probe competitor significantly reduced binding. Particulars: protein: recombinant; tags: N-terminal 6xHis (pET28b, NdeI/XhoI); label: 32P 5' end (T4 PNK); blunt (implied by two complementary oligonucleotides).

B1: Ipt promoter probe (-184 to -135) (dsDNA)
DNA 1: GATTTAGTCAGCCTTATTTGACTTAAGGGTGCCCTCGTTAGTGACAAATT
DNA 2: AATTTGTCACTAACGAGGGCACCCTTAAGTCAAATAAGGCTGACTAAATC
Regarding B1, the binding result is recorded as “binds”.
